In patent publication US20240294638A1:

Columns and labels:
[1] = biological target: NKG2A on primary human NK cells (human) (UniProt P26715); experiment: cell-based or functional assay
[2] = biological target: human NKG2A and human CD94 expressed on transiently transfected CHO-S cells (human) (UniProt Q13241); experiment: blocking of PE-conjugated HLA-E pentamer binding to transiently transfected CHO-S cells, flow cytometry (percentage binding) [panel A hNKG2A]
[3] = biological target: cynomolgus NKG2A and cynomolgus CD94 expressed on transiently transfected CHO-S cells (cynomolgus) (UniProt Q68VD2); experiment: blocking of PE-conjugated HLA-E pentamer binding to transiently transfected CHO-S cells, flow cytometry (percentage binding) [panel B cNKG2A]
[4] = biological target: cynomolgus NKG2C and cynomolgus CD94 expressed on transiently transfected CHO-S cells (cynomolgus); experiment: blocking of PE-conjugated HLA-E pentamer binding to transiently transfected CHO-S cells, flow cytometry (percentage binding) [cont.), panel D cNKG2C]
I168S (Homo sapiens) = experiment: flow cytometry, CHO-S cells transiently transfected with NKG2A variant and CD94, AF647 goat anti-human IgG secondary (MFI) [cont.), panel monalizumab analogue (IgG4]
[5] = biological target: human NKG2A M189I / human CD94 heterodimer on CHO-S cells (human) (UniProt Q13241); experiment: as above
[6] = biological target: human NKG2A S167A+I168S+S170L / human CD94 heterodimer on CHO-S cells (human) (UniProt Q13241); experiment: as above
[7] = biological target: human NKG2A S170L / human CD94 heterodimer on CHO-S cells (human) (UniProt Q13241); experiment: as above
[8] = biological target: human NKG2A and human CD94 expressed on transiently transfected CHO-S cells (human) (UniProt Q13241); experiment: as above
[9] = biological target: cynomolgus NKG2A and cynomolgus CD94 expressed on transiently transfected CHO-S cells (cynomolgus) (UniProt Q68VD2); experiment: flow cytometry, transiently transfected CHO-S cells, AF647 goat anti-human IgG secondary (MFI) [cont.), panel monalizumab analogue (IgG1-LALA]
[10] = biological target: cynomolgus NKG2C and cynomolgus CD94 expressed on transiently transfected CHO-S cells (cynomolgus); experiment: as above
[11] = biological target: human NKG2A and human CD94 expressed on transiently transfected CHO-S cells (human) (UniProt Q13241); experiment: as above

human NKG2A and human CD94 expressed on transiently transfected CHO-S cells (human), sequence (chain, as listed by the source, chain 1 of 2): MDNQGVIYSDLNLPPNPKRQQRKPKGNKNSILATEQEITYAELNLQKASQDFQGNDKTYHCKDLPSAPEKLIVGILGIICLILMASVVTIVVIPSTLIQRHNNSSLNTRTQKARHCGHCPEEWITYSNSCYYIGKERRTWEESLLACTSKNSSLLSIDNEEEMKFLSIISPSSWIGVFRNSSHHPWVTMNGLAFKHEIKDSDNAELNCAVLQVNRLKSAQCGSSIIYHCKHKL
human NKG2A and human CD94 expressed on transiently transfected CHO-S cells (human), sequence (Q13241 whole entry, chain 2 of 2): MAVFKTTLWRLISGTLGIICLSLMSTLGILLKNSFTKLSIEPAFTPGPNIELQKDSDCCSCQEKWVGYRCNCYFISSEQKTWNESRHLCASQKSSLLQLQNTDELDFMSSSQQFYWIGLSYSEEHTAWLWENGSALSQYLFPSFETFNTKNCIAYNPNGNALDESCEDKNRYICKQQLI
I168S (Homo sapiens), sequence (P26715 whole entry I168S): as the sequence (chain, as listed by the source, chain 1 of 2) above, with I168S counted along it
NKG2A on primary human NK cells (human), sequence (P26715 whole entry): as the sequence (chain, as listed by the source, chain 1 of 2) above
human NKG2A S167A+I168S+S170L / human CD94 heterodimer on CHO-S cells (human), sequence (chain, as listed by the source S167A I168S S170L S167A I168S S170L, chain 1 of 2): as the sequence (chain, as listed by the source, chain 1 of 2) above, with S167A, I168S, S170L counted along it
human NKG2A S167A+I168S+S170L / human CD94 heterodimer on CHO-S cells (human), sequence (Q13241 whole entry, chain 2 of 2): as the sequence (Q13241 whole entry, chain 2 of 2) above
human NKG2A M189I / human CD94 heterodimer on CHO-S cells (human), sequence (chain, as listed by the source M189I M189I, chain 1 of 2): as the sequence (chain, as listed by the source, chain 1 of 2) above, with M189I counted along it
human NKG2A M189I / human CD94 heterodimer on CHO-S cells (human), sequence (Q13241 whole entry, chain 2 of 2): as the sequence (Q13241 whole entry, chain 2 of 2) above
human NKG2A S170L / human CD94 heterodimer on CHO-S cells (human), sequence (chain, as listed by the source S170L S170L, chain 1 of 2): as the sequence (chain, as listed by the source, chain 1 of 2) above, with S170L counted along it
human NKG2A S170L / human CD94 heterodimer on CHO-S cells (human), sequence (Q13241 whole entry, chain 2 of 2): as the sequence (Q13241 whole entry, chain 2 of 2) above

| Substance | EC50 (ug/mL) of induced NK cell cytotoxicity, median (n = 6) [1] | IC50 (read off the curve) [2] | IC50 (read off the curve) [3] | IC50 (read off the curve) [4] | EC50 (read off the curve) (I168S (Homo sapiens)) | EC50 (read off the curve) [5] | EC50 (read off the curve) [6] | EC50 (read off the curve) [7] | EC50 (read off the curve) [8] | EC50 (read off the curve) [9] | EC50 (read off the curve) [10] | EC50 (read off the curve) [11] |
| --- | --- | --- | --- | --- | --- | --- | --- | --- | --- | --- | --- | --- |
| Monalizumab Analogue (IgG4-S228P) (antibody) | 0.89 µg/mL | 200 ng/mL | 500 ng/mL | 800 ng/mL | 2 ng/mL | 2 ng/mL | 3 ng/mL | 2 ng/mL | 2 ng/mL |  |  |  |
| monalizumab analogue (IgG1-LALA) (antibody) |  |  |  |  |  |  |  |  |  | 10 ng/mL | 20 ng/mL | 8 ng/mL |
